Data: publication PMC11585782, “The Plastidial Protein Acetyltransferase GNAT1 Forms a Complex With GNAT2, yet Their Interaction Is Dispensable for State Transitions” (Molecular & Cellular Proteomics : MCP, 2024)
Blank lines part the entries; values can stand above or below the binder they belong to.

What was measured:
purified protein = substrate: CC(=O)SCCNC(=O)CCNC(=O)[C@H](O)C(C)(C)COP(=O)(O)OP(=O)(O)OC[C@H]1O[C@@H](n2cnc3c(N)ncnc32)[C@H](O)[C@@H]1OP(=O)(O)O; test: purified protein; assay type: biochemical, Arabidopsis thaliana; conditions: acetyl-CoA 0-500 µM, 150 mM K-phosphate pH 8.0, 50 mM NaCl, 30 °C
[1] = target: His6-GNAT2 (Arabidopsis thaliana) (UniProt Q7X9V3)
[2] = target: His6-GNAT2 (Arabidopsis thaliana) (UniProt Q7X9V3); remark: listed apart in the source
[3] = co-substrate Nα-Val peptide V-A-Q-G-A-K(ac)-A-A-K(Dnp)-Ahx-r-r-r 100 µM
[4] = co-substrate Nα-Ala peptide A-A-Q-G-A-K(ac)-A-A-K(Dnp)-Ahx-r-r-r 100 µM

B1: His6-GNAT2 (Arabidopsis thaliana) (protein)
chain: SGFVKNNNSTQLVEPPSIVNDEEEETEPLLPVEFTLVERNLEDGLVEEIIFSSGGEIDVYDLQGLCDKVGWPRRPLVKLAAALKNSYMVATLHSVMKSSSDSDSSEGGDGEKQQEKKLIGMARATSDHAFNATIWDVLVDPEYQGQGLGKALVEKLVRALLQRDIGNISLFADSQVVDFYQNLGFEADPEGIKGMFWYPK
notes: expressed in E. coli, purified
Km (purified protein; [3]): 23.44 ± 0.32 µM
kcat (purified protein; [3]): 0.02335 ± 5e-05 s⁻¹

acetylation of the Nα-Met peptide by His6-GNAT1 + His6-GNAT2 (1 + 1 μM), effective activity as percent of the hypothetical sum of the single activities [1]: 55%
acetylation of the Nα-Thr peptide by His6-GNAT1 + His6-GNAT2 (1 + 1 μM), effective activity as percent of the hypothetical sum of the single activities [1]: 73%
acetylation of the Nα-Val peptide by His6-GNAT1 + His6-GNAT2 (1 + 1 μM), effective activity as percent of the hypothetical sum of the single activities [1]: 76%
acetylation rate of the Nα-Ala peptide by His6-GNAT1 + His6-GNAT2 (1 + 1 μM), against around 450 nmol ∙ min^-1 expected for additive activity [1]: 250 nmol/min
lysine acetylation of the Nε-Lys peptide by His6-GNAT1 + His6-GNAT2 (1 + 1 μM), effective activity as percent of the hypothetical sum of the single activities [1]: 93%
acetylation of the Nα-Ala peptide in the presence of both GNATs, turnover as percent of the hypothetical sum of both individual activities [2]: 53%
B2: His6-GNAT1 (enzyme)
chain: AAMQRKPPSYSISDEDLESRGFLLRRTTEGLNLDQLNSVFAAVGFPRRDTAKIEVALQHTDALLWVEYEKTRRPVAFARATGDGVFNAIIWDVVVDPSFQSCGLGKAVMERLIEDLQVKGICNIALYSEPRVLGFYRPLGFVSDPDGIKGMVFIRKQRNKK

B3: His6-GNAT1 (Arabidopsis thaliana) (protein)
chain: AAMQRKPPSYSISDEDLESRGFLLRRTTEGLNLDQLNSVFAAVGFPRRDTAKIEVALQHTDALLWVEYEKTRRPVAFARATGDGVFNAIIWDVVVDPSFQSCGLGKAVMERLIEDLQVKGICNIALYSEPRVLGFYRPLGFVSDPDGIKGMVFIRKQRNKK
notes: N-terminal His6 (pQE-30), predicted plastid transit peptide (36 N-terminal residues) removed; expressed in E. coli SoluBL21, Ni-NTA
Km (purified protein; [4]): 137.6 ± 9.8 µM
kcat (purified protein; [4]): 0.00858 ± 0.00025 s⁻¹
